Assay [1] has as its target AgaBb1191 (α-galactosidase from Bifidobacterium bifidum JCM 1254, residues 23-1191, without the N-terminal T7-tag) (Bifidobacterium bifidum JCM 1254). Description: SEC. Background: In gel filtration, larger molecules generally elute earlier.
Assay [2] deals with AgaBb1180 (Bifidobacterium bifidum JCM 1254). The assay can be described thus: SEC.

Broadly, the stoichiometry N is the number of molecules, sites or subunits per partner or assembly. As for “AgaBb1191 (α-galactosidase from Bifidobacterium bifidum JCM 1254, residues 23-1191, without the N-terminal T7-tag) (domain or fragment)”, the stoichiometry N in assay [1] amounted to 2. For the substance AgaBb1180 (domain or fragment), the stoichiometry N in assay [2] was determined as 2.

For the origin of these results see paper PMC11368712.
